Measured values from IntAct's records for PubMed 16306228.

B1: Serine/threonine-protein kinase SIK3 (Homo sapiens), Q9Y2K2 (parent)
chain: MAAAAASGAGGAAGAGTGGAGPAGRLLPPPAPGSPAAPAAVSPAAGQPRPPAPASRGPMPARIGYYEIDRTIGKGNFAVVKRATHLVTKAKVAIKIIDKTQLDEENLKKIFREVQIMKMLCHPHIIRLYQVMETERMIYLVTEYASGGEIFDHLVAHGRMAEKEARRKFKQIVTAVYFCHCRNIVHRDLKAENLLLDANLNIKIADFGFSNLFTPGQLLKTWCGSPPYAAPELFEGKEYDGPKVDIWSLGVVLYVLVCGALPFDGSTLQNLRARVLSGKFRIPFFMSTECEHLIRHMLVLDPNKRLSMEQICKHKWMKLGDADPNFDRLIAECQQLKEERQVDPLNEDVLLAMEDMGLDKEQTLQSLRSDAYDHYSAIYSLLCDRHKRHKTLRLGALPSMPRALAFQAPVNIQAEQAGTAMNISVPQVQLINPENQIVEPDGTLNLDSDEGEEPSPEALVRYLSMRRHTVGVADPRTEVMEDLQKLLPGFPGVNPQAPFLQVAPNVNFMHNLLPMQNLQPTGQLEYKEQSLLQPPTLQLLNGMGPLGRRASDGGANIQLHAQQLLKRPRGPSPLVTMTPAVPAVTPVDEESSDGEPDQEAVQSSTYKDSNTLHLPTERFSPVRRFSDGAASIQAFKAHLEKMGNNSSIKQLQQECEQLQKMYGGQIDERTLEKTQQQHMLYQQEQHHQILQQQIQDSICPPQPSPPLQAACENQPALLTHQLQRLRIQPSSPPPNHPNNHLFRQPSNSPPPMSSAMIQPHGAASSSQFQGLPSRSAIFQQQPENCSSPPNVALTCLGMQQPAQSQQVTIQVQEPVDMLSNMPGTAAGSSGRGISISPSAGQMQMQHRTNLMATLSYGHRPLSKQLSADSAEAHSLNVNRFSPANYDQAHLHPHLFSDQSRGSPSSYSPSTGVGFSPTQALKVPPLDQFPTFPPSAHQQPPHYTTSALQQALLSPTPPDYTRHQQVPHILQGLLSPRHSLTGHSDIRLPPTEFAQLIKRQQQQRQQQQQQQQQQEYQELFRHMNQGDAGSLAPSLGGQSMTERQALSYQNADSYHHHTSPQHLLQIRAQECVSQASSPTPPHGYAHQPALMHSESMEEDCSCEGAKDGFQDSKSSSTLTKGCHDSPLLLSTGGPGDPESLLGTVSHAQELGIHPYGHQPTAAFSKNKVPSREPVIGNCMDRSSPGQAVELPDHNGLGYPARPSVHEHHRPRALQRHHTIQNSDDAYVQLDNLPGMSLVAGKALSSARMSDAVLSQSSLMGSQQFQDGENEECGASLGGHEHPDLSDGSQHLNSSCYPSTCITDILLSYKHPEVSFSMEQAGV
B2: Serine/threonine-protein kinase SIK1 (Homo sapiens), P57059 (parent)
chain: MVIMSEFSADPAGQGQGQQKPLRVGFYDIERTLGKGNFAVVKLARHRVTKTQVAIKIIDKTRLDSSNLEKIYREVQLMKLLNHPHIIKLYQVMETKDMLYIVTEFAKNGEMFDYLTSNGHLSENEARKKFWQILSAVEYCHDHHIVHRDLKTENLLLDGNMDIKLADFGFGNFYKSGEPLSTWCGSPPYAAPEVFEGKEYEGPQLDIWSLGVVLYVLVCGSLPFDGPNLPTLRQRVLEGRFRIPFFMSQDCESLIRRMLVVDPARRITIAQIRQHRWMRAEPCLPGPACPAFSAHSYTSNLGDYDEQALGIMQTLGVDRQRTVESLQNSSYNHFAAIYYLLLERLKEYRNAQCARPGPARQPRPRSSDLSGLEVPQEGLSTDPFRPALLCPQPQTLVQSVLQAEMDCELQSSLQWPLFFPVDASCSGVFRPRPVSPSSLLDTAISEEARQGPGLEEEQDTQESLPSSTGRRHTLAEVSTRLSPLTAPCIVVSPSTTASPAEGTSSDSCLTFSASKSPAGLSGTPATQGLLGACSPVRLASPFLGSQSATPVLQAQGGLGGAVLLPVSFQEGRRASDTSLTQGLKAFRQQLRKTTRTKGFLGLNKIKGLARQVCQAPASRASRGGLSPFHAPAQSPGLHGGAAGSREGWSLLEEVLEQQRLLQLQHHPAAAPGCSQAPQPAPAPFVIAPCDGPGAAPLPSTLLTSGLPLLPPPLLQTGASPVASAAQLLDTHLHIGTGPTALPAVPPPRLARLAPGCEPLGLLQGDCEMEDLMPCSLGTFVLVQ

Variants of: B1
Settings: with 1433z_human YWHAZ

| effect of a mutation on the interaction | Variant |
| --- | --- |
| decreasing interaction | T221A |

Variants of: B2
Settings: with 1433z_human YWHAZ

| effect of a mutation on the interaction | Variant |
| --- | --- |
| decreasing interaction | T182A |
